Measurements from publication PMC3900104.

B1: Myc-tagged DISC1, in COS7 [human] / FLAG-tagged TRAK1 (trafficking-protein-Kinesin-binding-1), aa 2-953, in COS7 [human] (parent)
chain 1: MPGGGPQGAPAAAGGGGVSHRAGSRDCLPPAACFRRRRLARRPGYMRSSTGPGIGFLSPAVGTLFRFPGGVSGEESHHSESRARQCGLDSRGLLVRSPVSKSAAAPTVTSVRGTSAHFGIQLRGGTRLPDRLSWPCGPGSAGWQQEFAAMDSSETLDASWEAACSDGARRVRAAGSLPSAELSSNSCSPGCGPEVPPTPPGSHSAFTSSFSFIRLSLGSAGERGEAEGCPPSREAESHCQSPQEMGAKAASLDGPHEDPRCLSRPFSLLATRVSADLAQAARNSSRPERDMHSLPDMDPGSSSSLDPSLAGCGGDGSSGSGDAHSWDTLLRKWEPVLRDCLLRNRRQMEVISLRLKLQKLQEDAVENDDYDKAETLQQRLEDLEQEKISLHFQLPSRQPALSSFLGHLAAQVQAALRRGATQQASGDDTHTPLRMEPRLLEPTAQDSLHVSITRRDWLLQEKQQLQKEIEALQARMFVLEAKDQQLRREIEEQEQQLQWQGCDLTPLVGQLSLGQLQEVSKALQDTLASAGQIPFHAEPPETIRSLQERIKSLNLSLKEITTKVCMSEKFCSTLRKKVNDIETQLPALLEAKMHAISGNHFWTAKDLTEEIRSLTSEREGLEGLLSKLLVLSSRNVKKLGSVKEDYNRLRREVEHQETAYETSVKENTMKYMETLKNKLCSCKCPLLGKVWEADLEACRLLIQSLQLQEARGSLSVEDERQMDDLEGAAPPIPPRLHSEDKRKTPLKVLEEWKTHLIPSLHCAGGEQKEESYILSAELGEKCEDIGKKLLYLEDQLHTAIHSHDEDLIQSLRRELQMVKETLQAMILQLQPAKEAGEREAAASCMTAGVHEAQA
chain 2: ALVFQFGQPVRAQPLPGLCHGKLIRTNACDVCNSTDLPEVEIISLLEEQLPHYKLRADTIYGYDHDDWLHTPLISPDANIDLTTEQIEETLKYFLLCAERVGQMTKTYNDIDAVTRLLEEKERDLELAARIGQSLLKKNKTLTERNELLEEQVEHIREEVSQLRHELSMKDELLQFYTSAAEESEPESVCSTPLKRNESSSSVQNYFHLDSLQKKLKDLEEENVVLRSEASQLKTETITYEEKEQQLVNDCVKELRDANVQIASISEELAKKTEDAARQQEEITHLLSQIVDLQKKAKACAVENEELVQHLGAAKDAQRQLTAELRELEDKYAECMEMLHEAQEELKNLRNKTMPNTTSRRYHSLGLFPMDSLAAEIEGTMRKELQLEEAESPDITHQKRVFETVRNINQVVKQRSLTPSPMNIPGSNQSSAMNSLLSSCVSTPRSSFYGSDIGNVVLDNKTNSIILETEAADLGNDERSKKPGTPGTPGSHDLETALRRLSLRRENYLSERRFFEEEQERKLQELAEKGELRSGSLTPTESIMSLGTHSRFSEFTGFSGMSFSSRSYLPEKLQIVKPLEGSATLHHWQQLAQPHLGGILDPRPGVVTKGFRTLDVDLDEVYCLNDFEEDDTGDHISLPRLATSTPVQHPETSAHHPGKCMSQTNSTFTFTTCRILHPSDELTRVTPSLNSAPTPACGSTSHLKSTPVATPCTPRRLSLAESFTNTRESTTTMSTSLGLVWLLKERGISAAVYDPQSWDRAGRGSLLHSYTPKMAVIPSTPPNSPMQTPTSSPPSFEFKCTSPPYDNFLASKPASSILREVREKNVRSSESQTDVSVSNLNLVDKVRRFGVAKVVNSGRAHVPTLTEEQGPLLCGPPGPAPALVPRGLVPEGLPLRCPTVTSAIGGLQLNSGIRRNRSFPTMVGSSMQMKAPVTLTSGILMGAKLSKQTSLR

Variants of: B1
Experiment: co-immunoprecipitation (IP with Myc antibody, WB anti-FLAG), quantified
Conditions: with FLAG-tagged TRAK1 (trafficking-protein-Kinesin-binding-1), COS7 cells, n = 3 independent transfections, parent: 100, read off a plot

**Q.** Which percent of parent does the source give for chain 1 R35A R36A R37A R38A R41A R42A R47A here?
**A.** 43 % of DISC1
